For the test, the target named is T1, human CXCL1 protein (human, UniProt P09341 35-107).
T1 construct: also called HuCXCL1
T1 sequence: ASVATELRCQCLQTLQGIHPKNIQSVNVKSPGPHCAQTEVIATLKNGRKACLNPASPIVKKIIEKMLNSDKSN
In words: antigen-immobilized ELISA.

B1: mh4A-2F7 VH/VL2 (antibody, V domains shown)
VH: QVTLKESGPGILKPSQTLSLTCSFSGFSLSTSGMGVDWIRQPSGKGLEWLAHIWWDDDKYYNPSLKSQLTISKDTSRNQVFLKITSVDTADTATYYCARSYGYDMDYYAMDYWGQGTSVTVSS
VL: DIQMTQSPSSLSASLGERVSLTCRASQEISGYLSWLQQKPDGTIKRLIYAASTLESGVPKRFSGSRSGSDYSLTISSLESEDFADYYCLQYASYPPWTFGGGTKLEIK
On to B1, for which the binding result is listed as “binds”.

B2: mh4A-2F7 VH/VL3 (antibody, V domains shown)
VH: QVTLKESGPGILKPSQTLSLTCSFSGFSLSTSGMGVDWIRQPSGKGLEWLAHIWWDDDKYYNPSLKSQLTISKDTSRNQVFLKITSVDTADTATYYCARSYGYDMDYYAMDYWGQGTSVTVSS
VL: DIQMTQSPSSLSASLGERVSLTCRASQEISGYLSWLQQKPDGTIKRLIYAASTLDAGVPKRFSGSRSGSDYSLTISSLESEDFADYYCLQYASYPPWTFGGGTKLEIK
On to B2, for which the binding result is reported as “binds”.

B3: 028-8-12 VH1/VL (antibody, V domains shown)
VH: EVQLLESGGGLVQPGGSLRLSCAASGFTFSELSMSWVRQAPGKGLEWVSAISGSGGSTYYASSVKGRFTISRDNSKNTLYLQMNSLRAEDTAVYYCAREGGRLEPYYYYYAMDVWGQGTPVTVSS
VL: DIQMTQSPSSLSASVGDRVTITCRASQSISDNLHWYQQKPGKAPKLLIYDASNLESGVPSRFSGSGSGTDFTLTINSLQPEDFATYYCQQYYSTPLTFGQGTKLEIK
notes: Amino acid-modified human antibody
In the case of B3, the binding result is given as “binds”.

B4: 028-8-12 VH2/VL (antibody, V domains shown)
VH: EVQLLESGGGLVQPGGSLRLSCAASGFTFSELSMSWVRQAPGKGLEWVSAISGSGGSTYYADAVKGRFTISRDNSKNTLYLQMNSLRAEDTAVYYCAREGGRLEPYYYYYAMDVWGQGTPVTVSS
VL: DIQMTQSPSSLSASVGDRVTITCRASQSISDNLHWYQQKPGKAPKLLIYDASNLESGVPSRFSGSGSGTDFTLTINSLQPEDFATYYCQQYYSTPLTFGQGTKLEIK
notes: as for B3
For the molecule B4, the binding result is “binds”.

B5: 028-8-12 VH2/VL1 (antibody, V domains shown)
VH: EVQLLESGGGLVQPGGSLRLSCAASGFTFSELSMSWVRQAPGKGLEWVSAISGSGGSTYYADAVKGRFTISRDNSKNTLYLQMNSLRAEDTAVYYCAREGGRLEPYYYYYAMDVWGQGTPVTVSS
VL: DIQMTQSPSSLSASVGDRVTITCRASQSISDNLHWYQQKPGKAPKLLIYDASNLESGVPSRFSGSGSGTDFTLTISSLQPEDFATYYCQQYYSTPLTFGQGTKLEIK
notes: as for B3
In the case of B5, the binding result is recorded as “binds”.

B6: 028-8-12 VH/VL1 (antibody, V domains shown)
VH: EVQLLESGGGLVQPGGSLRLSCAASGFTFSELSMSWVRQAPGKGLEWVSAISGSGGSTYYADSVKGRFTISRDNSKNTLYLQMNSLRAEDTAVYYCAREGGRLEPYYYYYAMDVWGQGTPVTVSS
VL: DIQMTQSPSSLSASVGDRVTITCRASQSISDNLHWYQQKPGKAPKLLIYDASNLESGVPSRFSGSGSGTDFTLTISSLQPEDFATYYCQQYYSTPLTFGQGTKLEIK
notes: as for B3
Regarding B6, the binding result is recorded as “binds”.

B7: mh5A-5E11 VH1/VL (antibody, V domains shown)
VH: QVQLQQSGAELVRPGSSVKISCKASGYAFSDYWMNWVKQRPGQGLEWIGQIYPGSGDTNYNGKFKGKGTLTADKSSSTAYMQLNSLTSEDSAVYFCARERDYDVAMDYWGQGTSVTVSS
VL: DIQMTQSPSSLSASLGGKVTITCKASQDINKYIAWFQHKPGKGPRLVIHYTSILQPGIPSRFSGVGSGRDYSFSIRNLEPEDIATYYCLQYDNLPWTFGGGTKLEIK
On to B7, for which the binding result is “binds”.

B8: mh5A-5E11 VH10/VL (antibody, V domains shown)
VH: QVQLQQSGAELVRPGSSVKISCKASGYAFSDYWMNWVKQRPGQGLEWIGQIYPGDADTNYSGKFKGKGTLTADKSSSTAYMQLNSLTSEDSAVYFCARERDYDVAMDYWGQGTSVTVSS
VL: DIQMTQSPSSLSASLGGKVTITCKASQDINKYIAWFQHKPGKGPRLVIHYTSILQPGIPSRFSGVGSGRDYSFSIRNLEPEDIATYYCLQYDNLPWTFGGGTKLEIK
In the case of B8, the binding result was “binds”.

B9: mh5A-5E11 VH6/VL (antibody, V domains shown)
VH: QVQLQQSGAELVRPGSSVKISCKASGYAFSDYWMNWVKQRPGQGLEWIGQIYPGSGDTNYSGKFKGKGTLTADKSSSTAYMQLNSLTSEDSAVYFCARERDYDVAMDYWGQGTSVTVSS
VL: DIQMTQSPSSLSASLGGKVTITCKASQDINKYIAWFQHKPGKGPRLVIHYTSILQPGIPSRFSGVGSGRDYSFSIRNLEPEDIATYYCLQYDNLPWTFGGGTKLEIK
Consider B9, for which the binding result is “binds”.

B10: mh5A-5E11 VH4/VL (antibody, V domains shown)
VH: QVQLQQSGAELVRPGSSVKISCKASGYAFSDYWMNWVKQRPGQGLEWIGQIYPGDGDTNYSGKFKGKGTLTADKSSSTAYMQLNSLTSEDSAVYFCARERDYDVAMDYWGQGTSVTVSS
VL: DIQMTQSPSSLSASLGGKVTITCKASQDINKYIAWFQHKPGKGPRLVIHYTSILQPGIPSRFSGVGSGRDYSFSIRNLEPEDIATYYCLQYDNLPWTFGGGTKLEIK
As for B10, the binding result is reported as “binds”.

B11: mh5A-5E11 VH2/VL (antibody, V domains shown)
VH: QVQLQQSGAELVRPGSSVKISCKASGYAFSDYWMNWVKQRPGQGLEWIGQIYPGEGDTNYNGKFKGKGTLTADKSSSTAYMQLNSLTSEDSAVYFCARERDYDVAMDYWGQGTSVTVSS
VL: DIQMTQSPSSLSASLGGKVTITCKASQDINKYIAWFQHKPGKGPRLVIHYTSILQPGIPSRFSGVGSGRDYSFSIRNLEPEDIATYYCLQYDNLPWTFGGGTKLEIK
On to B11, for which the binding result is reported as “binds”.

B12: mh5A-5E11 VH8/VL (antibody, V domains shown)
VH: QVQLQQSGAELVRPGSSVKISCKASGYAFSDYWMNWVKQRPGQGLEWIGQIYPGEGDTNYSGKFKGKGTLTADKSSSTAYMQLNSLTSEDSAVYFCARERDYDVAMDYWGQGTSVTVSS
VL: DIQMTQSPSSLSASLGGKVTITCKASQDINKYIAWFQHKPGKGPRLVIHYTSILQPGIPSRFSGVGSGRDYSFSIRNLEPEDIATYYCLQYDNLPWTFGGGTKLEIK
Take B12: the binding result is given as “binds”.

B13: mh5A-5E11 VH11/VL (antibody, V domains shown)
VH: QVQLQQSGAELVRPGSSVKISCKASGYAFSDYWMNWVKQRPGQGLEWIGQIYPGDADTNYNAKFKGKGTLTADKSSSTAYMQLNSLTSEDSAVYFCARERDYDVAMDYWGQGTSVTVSS
VL: DIQMTQSPSSLSASLGGKVTITCKASQDINKYIAWFQHKPGKGPRLVIHYTSILQPGIPSRFSGVGSGRDYSFSIRNLEPEDIATYYCLQYDNLPWTFGGGTKLEIK
Turning to B13, the binding result was “binds”.

B14: mh5A-5E11 VH5/VL (antibody, V domains shown)
VH: QVQLQQSGAELVRPGSSVKISCKASGYAFSDYWMNWVKQRPGQGLEWIGQIYPGDGDTNYNAKFKGKGTLTADKSSSTAYMQLNSLTSEDSAVYFCARERDYDVAMDYWGQGTSVTVSS
VL: DIQMTQSPSSLSASLGGKVTITCKASQDINKYIAWFQHKPGKGPRLVIHYTSILQPGIPSRFSGVGSGRDYSFSIRNLEPEDIATYYCLQYDNLPWTFGGGTKLEIK
For B14, the binding result is “binds”.

B15: mh5A-5E11 VH9/VL (antibody, V domains shown)
VH: QVQLQQSGAELVRPGSSVKISCKASGYAFSDYWMNWVKQRPGQGLEWIGQIYPGEGDTNYNAKFKGKGTLTADKSSSTAYMQLNSLTSEDSAVYFCARERDYDVAMDYWGQGTSVTVSS
VL: DIQMTQSPSSLSASLGGKVTITCKASQDINKYIAWFQHKPGKGPRLVIHYTSILQPGIPSRFSGVGSGRDYSFSIRNLEPEDIATYYCLQYDNLPWTFGGGTKLEIK
In the case of B15, the binding result is on record as “binds”.

B16: mh5A-5E11 VH3/VL (antibody, V domains shown)
VH: QVQLQQSGAELVRPGSSVKISCKASGYAFSDYWMNWVKQRPGQGLEWIGQIYPGDADTNYNGKFKGKGTLTADKSSSTAYMQLNSLTSEDSAVYFCARERDYDVAMDYWGQGTSVTVSS
VL: DIQMTQSPSSLSASLGGKVTITCKASQDINKYIAWFQHKPGKGPRLVIHYTSILQPGIPSRFSGVGSGRDYSFSIRNLEPEDIATYYCLQYDNLPWTFGGGTKLEIK
As for B16, the binding result is given as “binds”.

Values taken from patent US20250154240A1 (CHIOME BIOSCIENCE, published 2025).
